Drawing on patent US20070185311A1 (EPIX MEDICAL INC A DELAWARE, published 2007), this text covers Kd for 19 molecules.

Starred links: 1 amine or outer side, 2 acyl side, 3 side chain; linkers in the order of their positions; H or OH if unused. Positions of bridges follow the written chain, without caps; N, C: chain ends. Non-standard residues stand in square brackets, D forms with d. No end group written: not given here. Phe(4-OMe) = COc1ccc(C[C@H](N[*:1])C(=O)[*:2])cc1; Bpa = N[C@@H](Cc1ccc(C(=O)c2ccccc2)cc1)C(=O)O; Tyr(3-Cl) = N[C@@H](Cc1ccc(O)c(Cl)c1)C(=O)O; Tyr(3-I) = N[C@@H](Cc1ccc(O)c(I)c1)C(=O)O; Phe(4-F) = N[C@@H](Cc1ccc(F)cc1)C(=O)O; 1Nal = N[C@@H](Cc1cccc2ccccc12)C(=O)O; Hyp = O=C(O)[C@@H]1C[C@@H](O)CN1; 3Pal = N[C@@H](Cc1cccnc1)C(=O)O; 4Pal = N[C@@H](Cc1ccncc1)C(=O)O; MTyr = not defined here; Cmp = not defined here

In the experiment the target is DD(E) fragment of fibrin. Briefly: affinity to DD(E) fragment of fibrin.

A word on the Kd: it is the concentration at which binding is half-saturated. Lower therefore signals a tighter complex. [MTyr]HC[Hyp][Tyr(3-I)]DLCHI (disulfide 3-8 (inferred); reading uncertain) [MTyr-H-C-Hyp-Y(3-I)-D-L-C-H-I] displayed a Kd below 100 nM.

With [Phe(4-OMe)]HC[Hyp][Tyr(3-Cl)]DLCHIL (disulfide 3-8 (inferred)) [F(4-OMe)-H-C-Hyp-Y(3-Cl)-D-L-C-H-I-L], the dissociation constant Kd is below 100 nM.

In turn, [Phe(4-F)]HC[Hyp][Tyr(3-I)]DLCHI (disulfide 3-8 (inferred)) [F(4-F)-H-C-Hyp-Y(3-I)-D-L-C-H-I] had a Kd below 100 nM.

The molecule LPCDYYGTCXD (Bip at 10) [L-P-C-D-Y-Y-G-T-C-Bip-D] displayed a Kd below 10000 nM.

[4Pal]HC[Hyp][Tyr(3-I)]DLCHI (disulfide 3-8 (inferred)) [4Pal-H-C-Hyp-Y(3-I)-D-L-C-H-I] had a Kd below 100 nM.

The molecule [Phe(4-OMe)]HC[Hyp][Tyr(3-Cl)]DLCH[Bpa]L (disulfide 3-8 (inferred)) [F(4-OMe)-H-C-Hyp-Y(3-Cl)-D-L-C-H-Bpa-L] displayed a Kd below 100 nM.

In turn, FHC[Hyp][Tyr(3-Cl)]DLCHI (disulfide 3-8 (inferred)) [F-H-C-Hyp-Y(3-Cl)-D-L-C-H-I] came in with a Kd below 100 nM.

B1: L-P-C-D-Y-Y-G-T-C-MeL-Cmp (peptide)
peptide: LPCDYYGTC[MeL][Cmp]
modifications: cysteine pairing not given here; reading uncertain; also: printed as L-P-C-D-Y-Y-G-T-C-MeL-Cmp
B1 came in with a Kd below 10000 nM.

For the molecule F[His(Bzl)]C[Hyp][Tyr(3-Cl)]DLCHIL (disulfide 3-8 (inferred)) [F-H(Bzl)-C-Hyp-Y(3-Cl)-D-L-C-H-I-L], the Kd is below 100 nM.

[3Pal]HC[Hyp][Tyr(3-I)]DLCHI (disulfide 3-8 (inferred)) [3Pal-H-C-Hyp-Y(3-I)-D-L-C-H-I]: the Kd is below 100 nM.

As for [Tyr(3-I)]HC[Hyp][Tyr(3-I)]DLCHI (disulfide 3-8 (inferred)) [Y(3-I)-H-C-Hyp-Y(3-I)-D-L-C-H-I], the Kd is below 100 nM.

For [Phe(4-OMe)]HC[Hyp][Tyr(3-Cl)]DLCHI (disulfide 3-8 (inferred)) [F(4-OMe)-H-C-Hyp-Y(3-Cl)-D-L-C-H-I], the equilibrium dissociation constant (Kd) is below 100 nM.

With [Phe(4-OMe)][His(Bzl)]C[Hyp][Tyr(3-I)]DLCH[Bpa] (disulfide 3-8 (inferred)) [F(4-OMe)-H(Bzl)-C-Hyp-Y(3-I)-D-L-C-H-Bpa], the dissociation constant (Kd) is below 100 nM.

As to LPCDYYGTCXD (Me-Bip at 10) [L-P-C-D-Y-Y-G-T-C-Me-Bip-D], the Kd is below 10000 nM.

The molecule LPCDYYGTCXD (Bip at 10; dD at 11) [L-P-C-D-Y-Y-G-T-C-Bip-dD] yielded a Kd below 10000 nM.

Regarding [Phe(4-OMe)]HC[Hyp][Tyr(3-I)]DLCHI (disulfide 3-8 (inferred)) [F(4-OMe)-H-C-Hyp-Y(3-I)-D-L-C-H-I], the Kd was below 100 nM.

The molecule [Phe(4-OMe)]HC[Hyp][Tyr(3-I)]DLCH[Bpa]L (disulfide 3-8 (inferred)) [F(4-OMe)-H-C-Hyp-Y(3-I)-D-L-C-H-Bpa-L] displayed a Kd below 100 nM.

Turning to [1Nal]HC[Hyp][Tyr(3-I)]DLCHI (disulfide 3-8 (inferred)) [1Nal-H-C-Hyp-Y(3-I)-D-L-C-H-I], the Kd was below 100 nM.

Consider FHC[Hyp][Tyr(3-I)]DLCHIL (disulfide 3-8 (inferred)) [F-H-C-Hyp-Y(3-I)-D-L-C-H-I-L], for which the equilibrium dissociation constant (Kd) was below 100 nM.
